“Also recorded” adds a separate entry of the source.
Columns and labels:
Jurkat T cells [1] = assay: Analysis of apoptosis (Annexin V-FITC/PI, FACS); assay type: cell-based; settings: 1 μM, 24 h
Description: 5×10^5 Jurkat T cells were treated as indicated. After 24 h cells were harvested by centrifugation, washed, resuspended in 500 μl AnnexinV-binding buffer (10 mM HEPES/NaOH, pH7.4, 140 mM NaCl, 2.5 mM CaCl2) and stained for 10 min each with 5 μl recombinant Annexin V-FITC (Caltag, Burlingame, Calif.) and 0.5 μg/ml PI at room temperature in the dark. Apoptotic cells were measured by FACS analysis (see above). Data were analyzed using Cell Quest software.

[2] = tested on: gamma glutamyl transpeptidase of Helicobacter pylori (HPGGT); assay: GGT activity assay: inhibition of GGT by acivicin; assay type: biochemical
Description: (§1) The assay for GGT activity was adapted from the method of Meister et al.^27 Briefly, reaction buffer consisting of 20 mM glycyl-glycine (Sigma) as acceptor, 2.5 mM L-γ-glutamyl-p-nitroanilide (Calbiochem, Schwalbach, Germany) as donor substrate and 100 mM Tris-HCl (pH 8.0) was prepared. In some experiments pH of assay buffer was varied between 2 and 10. Supernatants of different H. pylori strains, purified recombinant HPGGT or equine kidney GGT (Sigma) were added and the reaction proceeded at 37° C. for 30 min. The release of p-nitroanilide was monitored by spectrophotometry at 405 nm. One unit of activity was defined as the quantity of enzyme that released 1 μmol of p-nitroanilide per min and per mg of protein at 37° C.
This compound acts as an irreversible and competitive inhibitor of GGT. […] Similar results were obtained for recombinant HPGGT (data not shown).

human PBMC = assay: Cell proliferation assay (3H-thymidine incorporation), stimulated PBMC; assay type: cell-based
Description: Isolation of peripheral blood lymphocytes (PBMC) was performed as described previously^3. All cells were incubated at 37° C. with 5% CO2. Jurkat T cells and PBMC were cultured in RPMI 1640 (Invitrogen, Karlsruhe, Germany) with 10% FCS. EL-4 T cells were cultured in DMEM (Invitrogen) supplemented with 10% horse serum (Cambrex, Verviers, Belgium).
Cells (10^5 PBMC, purified primary T cells or 10^4 Jurkat/EL-4 cells/well) were cultured in 96-well flat-bottom plates in complete medium. PBMC were stimulated in triplicate with PMA (20 ng/ml; Sigma) and Ionomycin (100 ng/ml; Sigma) and all cells were grown with or without indicated total protein concentrations of H. pylori supernatants or recombinant proteins. Primary human T cells were stimulated with either PMA/Ionomycin as described above or with anti-CD3/CD28 beads (Invitrogen) at 1 bead per T cell. Cellular proliferation was determined after 48 h by methyl-[^3H]-thymidine (GE Healthcare) incorporation using a Packard Direct Beta Counter Matrix 9600 (Packard Instruments Co, Downer's Grove, Ill.).

HPGGT = assay: Immunization of animals, sera assayed for inhibition of GGT catalytic activity; assay type: in vivo, Helicobacter pylori; settings: mice, sera taken 6 weeks after immunization
Text: FIG. 9 is a diagram indicating the inhibitory effect of sera from immunized or infected mice on enzymatic activity of HPGGT. Mice were immunized with the indicated formulations or received PBS as control or were infected with live H. pylori. Sera were taken from tail veins 6 weeks after immunization or infection and assayed for inhibitory activity towards GGT catalytic activity.
as §1

[3] = GGT activity assay: catalytic activity of GGT proteins and fractions; assay type: biochemical
Description: as §1

IL-2 = IL-2 ELISA of PBMC supernatants; assay type: cell-based, human; settings: PBMC stimulated with PMA and Ionomycin, 24 h, compared to stimulated control
Description: (§2) PBMC (5×10^5 each) were treated for 24 h as depicted. At indicated time points cells were removed by centrifugation and supernatants were analyzed for amounts of IL-2 (eBioscience, San Diego, Calif.) and IFN-γ (Biosource, Solingen, Germany) by ELISA according to the manufacturer's instructions. The lower limits of detection were 4 pg/ml.
(§3) To date so far nothing was known about a role of HPGGT during suppression of the host's immune response. The inhibition of lymphocyte proliferation by HPGGT reported here might result from interference with cytokine secretion of human PBMCs. To test this hypothesis, cells were stimulated with PMA and Ionomycin and incubated with or without H. pylori wild-type and ΔGGT supernatants or recombinant HPGGT at different concentrations for 24 h. […] In addition secretion of IFN-γ was not reduced (FIG. 5B).

IFN-γ = IFN-γ ELISA of PBMC supernatants; assay type: cell-based, human; settings: PBMC stimulated with PMA and Ionomycin, 24 h
Description: as §2, §3

Jurkat T cells [4] = assay: Immunoblotting of cell cycle regulatory and signaling proteins; assay type: cell-based
Description: For immunoblot analysis 10^7 Jurkat T cells or PBMC were used. Prior to the experiment, Jurkat cells were serum starved for 18 h in medium containing 0.2% FCS. Afterwards, cells were released with 10% FCS and treated as depicted. At the indicated time points, the cells were harvested, washed once with ice-cold PBS, resuspended in 1× lysis buffer (Cell Signaling Technology, Danvers, Mass.) containing protease inhibitors (2.5 mM sodium pyrophosphate, 1 mM β-glycerophosphate, 1 mM Na3VO4, 1 μg/ml leupeptin, 1 mM PMSF; Sigma) and sonicated with a micro tip sonifier on ice for 30 sec. Lysates were centrifuged at 10000×g for 10 min at 4° C. and supernatants were used for immunoblotting. Equal amounts of protein (determined by Bradford assay, BioRad) were separated by Tricine-SDS-PAGE and electrotransferred onto nitrocellulose membranes (BioRad). For detection, membranes were probed with primary antibodies anti-p27, anti-Cyclin D3, anti-Cyclin E, anti-c-Myc (Dianova, Hamburg, Germany), anti-Cdk2 (Santa-Cruz Biotechnology, Heidelberg, Germany), anti-phospho-AKT (Ser 473), anti-phospho-c-Raf (Ser 338), anti-phospho-p70S6K (Thr 389; Cell Signaling), anti-phospho-FKHRL1/Foxo3 (Thr 32; Upstate, Lake Placid, N.Y.), anti-Actin (Sigma) and anti-VacA (Austral Biologicals, San Ramon, Calif.). […] For detection of the large subunit of the HPGGT protein a polyclonal rabbit anti-GGT antibody raised against a synthesized peptide IQPDTVTPSSQIKPGM including amino acid residues 356 to 371 of the HP 1118 gene product (Charles River, Kisslegg, Germany) was used.

human PBMCs = assay: Immunoblotting of cell cycle regulatory proteins in PBMC; assay type: cell-based; settings: 24 h and 48 h
Description: FIG. 6B an SDS PAGE of the proteins obtained from 10^7 PBMC which were incubated with different concentrations of HPWT and HPΔGGTSN or rHPGGT for 24 h and 48 h and subsequently lysed. 35 μg of total protein were separated by SDS-PAGE and analyzed by immunoblotting. Levels of indicated proteins were determined using the corresponding antibodies. Data were reproduced 2 times with similar results. (HP=H. pylori, SN=supernatant, WT=wild-type).
For immunoblot analysis 10^7 Jurkat T cells or PBMC were used. Prior to the experiment, Jurkat cells were serum starved for 18 h in medium containing 0.2% FCS. Afterwards, cells were released with 10% FCS and treated as depicted. At the indicated time points, the cells were harvested, washed once with ice-cold PBS, resuspended in 1× lysis buffer (Cell Signaling Technology, Danvers, Mass.) containing protease inhibitors (2.5 mM sodium pyrophosphate, 1 mM β-glycerophosphate, 1 mM Na3VO4, 1 μg/ml leupeptin, 1 mM PMSF; Sigma) and sonicated with a micro tip sonifier on ice for 30 sec. Lysates were centrifuged at 10000×g for 10 min at 4° C. and supernatants were used for immunoblotting. Equal amounts of protein (determined by Bradford assay, BioRad) were separated by Tricine-SDS-PAGE and electrotransferred onto nitrocellulose membranes (BioRad). […]

[5] = incubation of the HPGGT with acivicin
[6] = preincubation of HPWTSN with acivicin (50 μM) for 2 h at 37° C.

CN[C@@H]1C[C@H]2O[C@@](C)([C@@H]1OC)n1c3ccccc3c3c4c(c5c6ccccc6n2c5c31)C(=O)NC4 [staurosporin, reference compound]
apoptosis (positive control) (Jurkat T cells [1]): strongly induced apoptosis

N[C@H](C(=O)O)[C@@H]1CC(Cl)=NO1 [acivicin]
catalytic activity of HPGGT after incubation with acivicin [2, 5]: completely abolishes | GGT activity of H. pylori wild-type supernatants after pretreatment with acivicin [2, 6]: abrogated; also recorded: completely repressed | inhibitory effect of the enzyme (HPGGT) towards lymphocytes after incubation with acivicin (human PBMC; [5]): completely abolishes | inhibition of PBMC proliferation by H. pylori wild-type supernatants after pretreatment with acivicin (human PBMC; [6]): abrogated; also recorded: completely repressed

IQPDTVTPSSQIKPGM [peptide 356-371, peptide of HPGGT residues 356 to 371, far from the catalytic center]
inhibitory antibodies / inhibitory immune response against HPGGT in serum (HPGGT): No inhibitory immune response

B1: recombinant HPGGT: recombinant His-tagged gamma glutamyl transpeptidase of H. pylori expressed in E. coli (protein, listed as Helicobacter pylori)
chain: MRRSFLKTIGLGVIALFLGLLNPLSAASYPPIKNTKVGLALSSHPLASEIGQKVLEEGGNAIDAAVAIGFALAVVHPAAGNIGGGGFAVIHLANGENVALDFREKAPLKATKNMFLDKQGNVVPKLSEDGYLAAGVPGTVAGMEAMLKKYGTKKLSQLIDPAIKLAENGYAISQRQAETLKEARERFLKYSSSKKYFFKKGHLDYQEGDLFVQKDLAKTLNQIKTLGAKGFYQGQVAELIEKDMKKNGGIITKEDLASYNVKWRKPVVGSYRGYKIISMSPPSSGGTHLIQILNVMENADLSALGYGASKNIHIAAEAMRQAYADRSVYMGDADFVSVPVDKLINKAYAKKIFDTIQPDTVTPSSQIKPGMGQLHEGSNTTHYSVADRWGNAVSVTYTINASYGSAASIDGAGFLLNNEMDDFSIKPGNPNLYGLVGGDANAIEANKRPLSSMSPTIVLKNNKVFLVVGSPGGSRIITTVLQVISNVIDYNMNISEAVSAPRFHMQWLPDELRIEKFGMPADVKDNLTKMGYQIVTKPVMGDVNAIQVLPKTKGSVFYGSTDPRKEF
modifications: His-tag
notes: recombinant His-tagged gamma glutamyl transpeptidase of H. pylori expressed in E. coli
enzymatic GGT activity ([3]; pH 8.0, 37° C., 30 min): strong GGT activity | pH range of catalytic activity ([3]; pH of assay buffer varied between 2 and 10): 2-10 | inhibition of PBMC proliferation (human PBMC; PBMC stimulated with PMA/Ionomycin, 48 h): efficiently inhibited | inhibitory effect of HPGGT on lymphocyte proliferation in the absence of glutamine (human PBMC; medium without the amino acid glutamine): completely abolished | reduction of IL-2 secretion (IL-2): none of these treatments led to reduction | secretion of IFN-γ (IFN-γ): not reduced | Cyclin levels (Jurkat T cells [4]; 2 μg/ml): complete reduction | cellular levels and phosphorylation of AKT, p70S6k and Foxo 3 (PI3K-signaling) (Jurkat T cells [4]; Jurkat T cells and PBMC): not reduced | cellular levels of c-Myc and phosphorylation of c-Raf (Ras-dependent pathway) (Jurkat T cells [4]; Jurkat T cells and PBMC): reduced | cell cycle regulating proteins (Cyclin D3, E1) in PBMC (human PBMCs): even stronger reduction

Reference: patent publication US9090676B2, “Method for treating Helicobacter pylori infections” (priority 2006, dated 2015)
